The results in this text go back to the Human Domainome abundance scans (Beltran et al. 2025).

To fix the notation:
B1: Ankyrin repeat and SAM domain-containing protein 6, residues 774 to 836; numbered along this chain, Q68DC2 (parent)
chain: DEDELTGILKKLSLEKYQPIFEEQEVDMEAFLTLTDGDLKELGIKTDGSRQQILAAISELNAG
B2: Nuclear receptor subfamily 4 group A member 2, residues 260 to 336; numbered along this chain, P43354 (parent)
chain: EGLCAVCGDNAACQHYGVRTCEGCKGFFKRTVQKNAKYVCLANKNCPVDKRRRNRCQYCRFQKCLAVGMVKEVVRTD

± gives the uncertainty stated by the source.

In one data set the parent is B1. In words: abundance fitness (aPCA) (normalised: wild type 0, dead -1); higher = more abundant; growth selection in yeast, the domain comes from the species named. Particulars: Homo sapiens.
For the variant P19R, the abundance fitness was -0.116 ± 0.057.
On the same count and under the same terms, under P19M stands -0.035 ± 0.15.
Regarding A56T, the abundance fitness is -0.113 ± 0.059.
For the variant A56E, the abundance fitness was determined as 0.004 ± 0.079.
Same read-out and setting: for R50G the value was -0.677 ± 0.039; for R50Q, -0.621 ± 0.085; for R50A, -0.494 ± 0.055.
As to R50V, the abundance fitness is -0.492 ± 0.047.
Still for that read-out and setting: under R50L stands -0.623 ± 0.051.
As for R50W, the abundance fitness was -0.706 ± 0.069.
With A62M, the abundance fitness was -0.2 ± 0.053.
Same read-out and setting: under A62N stands -0.07 ± 0.13; under A62L, -0.178 ± 0.029.
Turning to Y17T, the abundance fitness is -0.509 ± 0.081.
For the variant Y17F, the abundance fitness is -0.045 ± 0.039.
On the same count and under the same terms, under Y17N stands -0.344 ± 0.14; under Y17P, -0.756 ± 0.045.
Take Y17C: the abundance fitness is -0.255 ± 0.096.
Take L32N: the abundance fitness was -0.295 ± 0.071.
Consider L32M, for which the abundance fitness is -0.083 ± 0.065.
For the variant L32T, the abundance fitness is -0.157 ± 0.06.
As to F21A, the abundance fitness was -0.348 ± 0.058.
The same measure, in the same setting: under F21H stands -0.629 ± 0.058; under A55S, 0.043 ± 0.042.
For the variant E2C, the abundance fitness was found to be 0.142 ± 0.084.
Regarding E2T, the abundance fitness was 0.361 ± 0.23.
Still for that read-out and setting: under E2H stands 0.248 ± 0.32.
On the same count and under the same terms, for E2W the value was 0.143 ± 0.069.
Same read-out and setting: for E41V the value was -0.232 ± 0.044.
Regarding E41S, the abundance fitness was -0.022 ± 0.039.
On the same count and under the same terms, for I53S the value was -0.44 ± 0.046.
On the same count and under the same terms, under I53M stands -0.062 ± 0.049.
The same measure, in the same setting: under D27Y stands -0.729 ± 0.077; under D27I, -0.827 ± 0.096; under D27A, -0.47 ± 0.042.
For the variant D27T, the abundance fitness came out at 0.001 ± 0.044.
Consider D1W, for which the abundance fitness was -0.363 ± 0.31.
Same read-out and setting: under D1A stands -0.023 ± 0.076; under D1S, 0.045 ± 0.17.
With D1E, the abundance fitness is -0.103 ± 0.14.
Still for that read-out and setting: under E15T stands -0.21 ± 0.11; under E15L, -0.185 ± 0.065.
Regarding E15F, the abundance fitness was -0.505 ± 0.12.
For the variant S58M, the abundance fitness is -0.205 ± 0.093.
Consider S58T, for which the abundance fitness was -0.064 ± 0.049.
For S58H, the abundance fitness is -0.114 ± 0.17.
The same measure, in the same setting: for S58F the value was -0.434 ± 0.068.
On the same count and under the same terms, under M28H stands -0.218 ± 0.099; under M28E, -0.437 ± 0.097; under M28F, -0.132 ± 0.07.
On the same count and under the same terms, for M28I the value was -0.202 ± 0.063; for M28S, -0.094 ± 0.054.
With M28C, the abundance fitness was -0.319 ± 0.072.
On the same count and under the same terms, under T35W stands -0.879 ± 0.099; under T35C, -0.363 ± 0.085; under T35G, -0.199 ± 0.05.
On the same count and under the same terms, under T35A stands -0.377 ± 0.045.
Turning to Q52S, the abundance fitness is -0.105 ± 0.041.
Consider Q52W, for which the abundance fitness was -0.805 ± 0.074.
On the same count and under the same terms, under Q52N stands -0.193 ± 0.072; under Q52I, -0.211 ± 0.069; under A30W, -0.464 ± 0.06.
Still for that read-out and setting: under A30C stands -0.02 ± 0.084; under A30L, -0.089 ± 0.048; under A30F, -0.246 ± 0.072.
Same read-out and setting: for A30P the value was -0.784 ± 0.088; for A30D, -0.273 ± 0.063.

The variants in a further data set derive from B2. Described as above. Particulars: Homo sapiens.
L3F: the abundance fitness was -0.026 ± 0.34.
L3V: the abundance fitness is -0.054 ± 0.19.
Same read-out and setting: for D9W the value was -0.058 ± 0.45.
With D9G, the abundance fitness was determined as 0.05 ± 0.2.
The same measure, in the same setting: under Y16G stands -0.01 ± 0.07; under Y16W, -0.351 ± 0.17; under Y16P, -0.112 ± 0.15.
Still for that read-out and setting: under Y16A stands 0.049 ± 0.065; under Y16V, -0.185 ± 0.11; under Y16L, -0.081 ± 0.12.
Regarding Y16R, the abundance fitness was -0.051 ± 0.14.
Still for that read-out and setting: for Y16M the value was 0.383 ± 0.46; for Y16F, 0.037 ± 0.13.
Turning to Y16N, the abundance fitness was determined as 0.029 ± 0.14.
Consider Y16T, for which the abundance fitness is -0.131 ± 0.14.
The same measure, in the same setting: for Y16K the value was -0.185 ± 0.12; for Y16I, -0.432 ± 0.38.
On the same count and under the same terms, under Y16Q stands 0.025 ± 0.12.
In the case of Y16S, the abundance fitness is -0.1 ± 0.15.
Same read-out and setting: for G8D the value was -0.459 ± 0.24; for G8L, 0.457 ± 0.39; for G8M, -0.019 ± 0.21.
For V18H, the abundance fitness was -0.387 ± 0.24.
In the case of V18W, the abundance fitness is -0.484 ± 0.13.
The same measure, in the same setting: for V18L the value was -0.15 ± 0.098; for V18C, -0.263 ± 0.35; for V18G, -0.112 ± 0.07.
Still for that read-out and setting: for V18P the value was -0.11 ± 0.092; for V18S, -0.121 ± 0.082.
In the case of V18Q, the abundance fitness was -0.161 ± 0.12.
Still for that read-out and setting: for V18E the value was -0.044 ± 0.14; for V18R, -0.29 ± 0.12; for V18F, -0.111 ± 0.11.
The same measure, in the same setting: for V18A the value was 0.116 ± 0.12.
Same read-out and setting: under C4R stands -0.47 ± 0.35; under C13L, 0.083 ± 0.083.
On to C13Y, for which the abundance fitness was -0.138 ± 0.36.
For C13R, the abundance fitness is -0.103 ± 0.075.
In the case of C13T, the abundance fitness stood at 0.006 ± 0.098.
Still for that read-out and setting: for C13A the value was 0.1 ± 0.088; for C13G, 0.057 ± 0.054; for C13F, 0.116 ± 0.18.
With C13K, the abundance fitness came out at 0.099 ± 0.11.
In the case of C13V, the abundance fitness turned out to be 0.046 ± 0.061.
As to C13E, the abundance fitness came out at 0.03 ± 0.085.
As to C13H, the abundance fitness was found to be 0.136 ± 0.31.
On the same count and under the same terms, under C13W stands 0.082 ± 0.07.
On to C13M, for which the abundance fitness is 0.239 ± 0.08.
Same read-out and setting: under C13I stands -0.298 ± 0.43.
In the case of C13D, the abundance fitness was -0.022 ± 0.22.
Same read-out and setting: for C13S the value was 0.092 ± 0.075; for H15L, -0.014 ± 0.07.
The same measure, in the same setting: under H15V stands 0.016 ± 0.072; under H15P, 0.104 ± 0.1; under H15S, -0.053 ± 0.075.
Regarding H15Q, the abundance fitness is -0.318 ± 0.26.
Regarding H15A, the abundance fitness was -0.138 ± 0.084.
The same measure, in the same setting: for H15G the value was -0.082 ± 0.07.
Still for that read-out and setting: for H15E the value was -0.106 ± 0.091; for H15R, -0.137 ± 0.053; for H15C, -0.097 ± 0.13.
Same read-out and setting: under H15W stands 0.013 ± 0.078.
For the variant H15N, the abundance fitness was -0.012 ± 0.15.
Still for that read-out and setting: for H15M the value was 0.054 ± 0.1; for H15T, 0.01 ± 0.12.
On the same count and under the same terms, under H15K stands -0.101 ± 0.25; under Q14I, -0.211 ± 0.4; under Q14A, 0.207 ± 0.089.
Same read-out and setting: under Q14D stands -0.189 ± 0.1.
In the case of Q14W, the abundance fitness was determined as 0.017 ± 0.088.
Take Q14M: the abundance fitness is 0.199 ± 0.079.
On the same count and under the same terms, for Q14N the value was -0.088 ± 0.21.
The same measure, in the same setting: under Q14P stands -0.012 ± 0.097; under Q14V, 0.095 ± 0.077; under Q14R, -0.061 ± 0.079.
Regarding Q14T, the abundance fitness was -0.013 ± 0.15.
The same measure, in the same setting: for Q14S the value was 0.117 ± 0.14.
The same measure, in the same setting: for Q14Y the value was 0.572 ± 0.32; for Q14G, 0.005 ± 0.07.
Same read-out and setting: for Q14L the value was 0.221 ± 0.073; for Q14E, -0.129 ± 0.095; for Q14K, 0.256 ± 0.1.
Regarding G17R, the abundance fitness is -0.173 ± 0.094.
Take G17I: the abundance fitness amounted to 0.092 ± 0.4.
Take G17L: the abundance fitness is -0.133 ± 0.099.
Still for that read-out and setting: under G17C stands 0.255 ± 0.26; under G17H, -0.004 ± 0.33; under G17W, -0.383 ± 0.33.
Still for that read-out and setting: under G17K stands -0.346 ± 0.25.
On to G17T, for which the abundance fitness was -0.097 ± 0.11.
Regarding G17E, the abundance fitness was -0.116 ± 0.19.
G17S: the abundance fitness is -0.371 ± 0.17.
On to G17M, for which the abundance fitness was -0.076 ± 0.12.
In the case of G17Q, the abundance fitness worked out at 0.044 ± 0.15.
With G17P, the abundance fitness was -0.841 ± 0.34.
On the same count and under the same terms, under G17V stands -0.364 ± 0.14.
Consider G2S, for which the abundance fitness was -0.075 ± 0.28.
In the case of G2V, the abundance fitness is -0.191 ± 0.26.
For A5L, the abundance fitness was determined as 0.219 ± 0.22.
Regarding A5R, the abundance fitness is -0.026 ± 0.25.
